This is an account of results in patent US20220249633A1.

The target in this test is HLA-A*24 (human). The test is described as follows: UV-exchange ELISA, exchange yield grade. For orientation: ELISA stands for enzyme-linked immunosorbent assay.
Turning to IYLSDLTYI [… (SEQ ID NO: 117)], the peptide exchange yield lay in the range of 50 to 75%.

IFGIFPNQF [… (SEQ ID NO: 139)] showed a peptide exchange yield of 50 to 75%.

IYNETVRDLL [… (SEQ ID NO: 106)] returned a peptide exchange yield of 50 to 75%.

As for GYIEHFSLW [… (SEQ ID NO: 120)], the peptide exchange yield was over 75%.

For the molecule IYNETITDLL [… (SEQ ID NO: 105)], the peptide exchange yield lay in the range of 50 to 75%.

In turn, EYLDRIGQLFF [… (SEQ ID NO: 131)] showed a peptide exchange yield of 50 to 75%.

RYLINSYDF [… (SEQ ID NO: 140)] showed a peptide exchange yield of over 75%.

IYNFVESKL [… (SEQ ID NO: 112)] yielded a peptide exchange yield of 50 to 75%.

Turning to KYIFQLNEI [… (SEQ ID NO: 143)], the peptide exchange yield was in the range of 50 to 75%.

Consider VYTPVLEHL [… (SEQ ID NO: 123)], for which the peptide exchange yield fell in the range of 20 to 49%.

On to VFASLPGFLF [… (SEQ ID NO: 144)], for which the peptide exchange yield is over 75%.

Consider TYKDYVDLF [… (SEQ ID NO: 124)], for which the peptide exchange yield is under 20%.

AYVIAVHLF [… (SEQ ID NO: 116)]: the peptide exchange yield was over 75%.

Regarding NYYERIHAL [… (SEQ ID NO: 146)], the peptide exchange yield was 50 to 75%.

KYLNSVQYI [… (SEQ ID NO: 118)] had a peptide exchange yield of 50 to 75%.

For TYTFLKETF [… (SEQ ID NO: 97)], the peptide exchange yield is over 75%.

Turning to SYGTVSQIF [… (SEQ ID NO: 148)], the peptide exchange yield was over 75%.

Consider QYLDGTWSL [… (SEQ ID NO: 114)], for which the peptide exchange yield was over 75%.

As to LYLAFPLAF [… (SEQ ID NO: 147)], the peptide exchange yield fell in the range of 50 to 75%.

As to RYPALFPVL [… (SEQ ID NO: 132)], the peptide exchange yield is over 75%.

Molecule LFITGGQFF [… (SEQ ID NO: 109)] displayed a peptide exchange yield of over 75%.

In turn, PYLVVIHTL [… (SEQ ID NO: 108)] registered a peptide exchange yield of 50 to 75%.

KYFPYLVVI [… (SEQ ID NO: 107)] came in with a peptide exchange yield of 50 to 75%.

For the molecule VFPRLHNVLF [… (SEQ ID NO: 98)], the peptide exchange yield was 50 to 75%.

The molecule VYNAVSTSF [… (SEQ ID NO: 138)] showed a peptide exchange yield of 20 to 49%.

The molecule IYPEWPVVFF [… (SEQ ID NO: 136)] gave a peptide exchange yield of 50 to 75%.

With IYSFHTLSF [… (SEQ ID NO: 113)], the peptide exchange yield was in the range of 50 to 75%.

In turn, VFSRDFGLLVF [… (SEQ ID NO: 125)] had a peptide exchange yield of 50 to 75%.

SYLTWHQQI [… (SEQ ID NO: 104)] registered a peptide exchange yield of over 75%.

VYPFDWQYI [… (SEQ ID NO: 128)] yielded a peptide exchange yield of over 75%.

For the molecule NYIPVKNGKQF [… (SEQ ID NO: 103)], the peptide exchange yield is 50 to 75%.

Regarding SYPKIIEEF [… (SEQ ID NO: 110)], the peptide exchange yield fell in the range of 50 to 75%.

In turn, KYIDYLMTW [… (SEQ ID NO: 129)] showed a peptide exchange yield of over 75%.

On to KYLEDMKTYF [… (SEQ ID NO: 133)], for which the peptide exchange yield fell in the range of 50 to 75%.

In the case of VYALKVRTI [… (SEQ ID NO: 145)], the peptide exchange yield was 50 to 75%.

On to EYLHNCSYF [… (SEQ ID NO: 137)], for which the peptide exchange yield is over 75%.

On to AYIPTPIYF [… (SEQ ID NO: 134)], for which the peptide exchange yield lay in the range of 50 to 75%.

Turning to RYLNKSFVL [… (SEQ ID NO: 115)], the peptide exchange yield was 50 to 75%.

With EYQARIPEF [… (SEQ ID NO: 122)], the peptide exchange yield fell in the range of 50 to 75%.

On to QYFTGNPLF [… (SEQ ID NO: 127)], for which the peptide exchange yield fell in the range of 50 to 75%.

As to QYILAVPVL [… (SEQ ID NO: 99)], the peptide exchange yield is over 75%.

Regarding VYIESRIGTSTSF [… (SEQ ID NO: 100)], the peptide exchange yield was in the range of 50 to 75%.

In the case of RYGLPAAWSTF [… (SEQ ID NO: 121)], the peptide exchange yield was in the range of 50 to 75%.

For VYVQILQKL [… (SEQ ID NO: 111)], the peptide exchange yield lay in the range of 50 to 75%.

VYEAMVPLF [… (SEQ ID NO: 135)] returned a peptide exchange yield of over 75%.

VYRVYVTTF [… (SEQ ID NO: 119)] had a peptide exchange yield of 50 to 75%.

Regarding SYNGHLTIWF [… (SEQ ID NO: 141)], the peptide exchange yield lay within 50 to 75%.

Regarding VYPFENFEF [… (SEQ ID NO: 102)], the peptide exchange yield lay within 50 to 75%.

In turn, YYTQYSQTI [… (SEQ ID NO: 96)] registered a peptide exchange yield of over 75%.
